Like-named read-outs stand apart in the source and are kept apart here.
Legend:
cyclodextrinase [1] = target: T1, cyclodextrinase (Lysinibacillus sphaericus, UniProt Q08341); test: Substrate specificity of the present cyclodextrinase (relative hydrolysis rate); assay type: biochemical, Bacillus sphaericus; details: substrate conc. 2 mM; β-cyclodextrin = 100
T1 construct: is cultured in a medium to yield and accumulate said cyclodextrinase, and this enzyme is collected from the culture; made in house; host or cells: Bacillus sphaericus E-244 (FERM BP-2458), the natural wild-type producer strain; not recombinant
T1 sequence (Q08341 1-591): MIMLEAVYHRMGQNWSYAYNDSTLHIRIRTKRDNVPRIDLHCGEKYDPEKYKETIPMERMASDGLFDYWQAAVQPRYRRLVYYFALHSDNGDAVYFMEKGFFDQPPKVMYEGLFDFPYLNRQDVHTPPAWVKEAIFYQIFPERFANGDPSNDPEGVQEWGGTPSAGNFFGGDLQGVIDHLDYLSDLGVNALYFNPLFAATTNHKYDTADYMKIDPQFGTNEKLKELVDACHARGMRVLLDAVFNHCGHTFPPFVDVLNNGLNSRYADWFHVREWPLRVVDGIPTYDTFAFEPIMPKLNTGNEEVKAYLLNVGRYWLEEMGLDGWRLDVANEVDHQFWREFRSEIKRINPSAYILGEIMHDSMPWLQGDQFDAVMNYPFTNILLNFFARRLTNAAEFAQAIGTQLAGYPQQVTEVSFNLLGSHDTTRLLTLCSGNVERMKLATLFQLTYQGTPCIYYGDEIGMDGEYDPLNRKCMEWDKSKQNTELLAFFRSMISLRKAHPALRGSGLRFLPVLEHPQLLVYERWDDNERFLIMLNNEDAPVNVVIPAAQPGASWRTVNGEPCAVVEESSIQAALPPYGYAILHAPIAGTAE
Method: (§1) When the amount of the enzyme was small, the reducing power of the enzyme was determined according to Nelson-Somogyi's method, with glucose as standard.

cyclodextrinase [2] = target: T1, cyclodextrinase; test: Reaction rate parameters of the present enzyme for cyclodextrins and maltooligosaccharides; assay type: biochemical, Bacillus sphaericus; parameters: Vmax: unit not given here
Method: as §1

cyclodextrinase [3] = details: Bacillus macerans enzyme, prior literature; cited from earlier work
cyclodextrinase [4] = details: Bacillus coagulans enzyme, prior literature; cited from earlier work
[5] = substrate: OC[C@H]1O[C@@H]2O[C@H]3[C@H](O)[C@@H](O)[C@@H](O[C@H]4[C@H](O)[C@@H](O)[C@@H](O[C@H]5[C@H](O)[C@@H](O)[C@@H](O[C@H]6[C@H](O)[C@@H](O)[C@@H](O[C@H]7[C@H](O)[C@@H](O)[C@@H](O[C@H]8[C@H](O)[C@@H](O)[C@@H](O[C@H]1[C@H](O)[C@H]2O)O[C@@H]8CO)O[C@@H]7CO)O[C@@H]6CO)O[C@@H]5CO)O[C@@H]4CO)O[C@@H]3CO; test: purified protein, by the assay type; details: other: substrate of Bacillus sphaericus cyclodextrinase; pH 7.5; 40.0 °C
[6] = substrate: OC[C@H]1O[C@@H]2O[C@H]3[C@H](O)[C@@H](O)[C@@H](O[C@H]4[C@H](O)[C@@H](O)[C@@H](O[C@H]5[C@H](O)[C@@H](O)[C@@H](O[C@H]6[C@H](O)[C@@H](O)[C@@H](O[C@H]7[C@H](O)[C@@H](O)[C@@H](O[C@H]8[C@H](O)[C@@H](O)[C@@H](O[C@H]9[C@H](O)[C@@H](O)[C@@H](O[C@H]1[C@H](O)[C@H]2O)O[C@@H]9CO)O[C@@H]8CO)O[C@@H]7CO)O[C@@H]6CO)O[C@@H]5CO)O[C@@H]4CO)O[C@@H]3CO; test: purified protein, by the assay type; details: other: substrate of Bacillus sphaericus cyclodextrinase; pH 7.5; 40.0 °C
[7] = substrate: OC[C@H]1O[C@H](O[C@H]2[C@H](O)[C@@H](O)[C@@H](O[C@H]3[C@H](O)[C@@H](O)[C@@H](O[C@H]4[C@H](O)[C@@H](O)C(O)O[C@@H]4CO)O[C@@H]3CO)O[C@@H]2CO)[C@H](O)[C@@H](O)[C@@H]1O; test: purified protein, by the assay type; details: other: substrate of Bacillus sphaericus cyclodextrinase; pH 7.5; 40.0 °C
[8] = substrate: OC[C@H]1O[C@H](O[C@H]2[C@H](O)[C@@H](O)[C@@H](O[C@H]3[C@H](O)[C@@H](O)[C@@H](O[C@H]4[C@H](O)[C@@H](O)[C@@H](O[C@H]5[C@H](O)[C@@H](O)[C@@H](O[C@H]6[C@H](O)[C@@H](O)C(O)O[C@@H]6CO)O[C@@H]5CO)O[C@@H]4CO)O[C@@H]3CO)O[C@@H]2CO)[C@H](O)[C@@H](O)[C@@H]1O; test: purified protein, by the assay type; details: other: substrate of Bacillus sphaericus cyclodextrinase; pH 7.5; 40.0 °C
[9] = substrate: OC[C@H]1O[C@@H]2O[C@H]3[C@H](O)[C@@H](O)[C@@H](O[C@H]4[C@H](O)[C@@H](O)[C@@H](O[C@H]5[C@H](O)[C@@H](O)[C@@H](O[C@H]6[C@H](O)[C@@H](O)[C@@H](O[C@H]7[C@H](O)[C@@H](O)[C@@H](O[C@H]1[C@H](O)[C@H]2O)O[C@@H]7CO)O[C@@H]6CO)O[C@@H]5CO)O[C@@H]4CO)O[C@@H]3CO; test: Reaction rate parameters of the present enzyme for cyclodextrins and maltooligosaccharides; assay type: biochemical; details: other: substrate of Bacillus sphaericus cyclodextrinase; pH 7.5; 40.0 °C
[10] = substrate: OC[C@H]1O[C@H](O[C@H]2[C@H](O)[C@@H](O)[C@@H](O[C@H]3[C@H](O)[C@@H](O)[C@@H](O[C@H]4[C@H](O)[C@@H](O)[C@@H](O[C@H]5[C@H](O)[C@@H](O)C(O)O[C@@H]5CO)O[C@@H]4CO)O[C@@H]3CO)O[C@@H]2CO)[C@H](O)[C@@H](O)[C@@H]1O; test: as above; assay type: biochemical; details: other: substrate of Bacillus sphaericus cyclodextrinase; pH 7.5; 40.0 °C
[11] = substrate: OC[C@H]1O[C@H](O[C@H]2[C@H](O)[C@@H](O)[C@@H](O[C@H]3[C@H](O)[C@@H](O)[C@@H](O[C@H]4[C@H](O)[C@@H](O)[C@@H](O[C@H]5[C@H](O)[C@@H](O)[C@@H](O[C@H]6[C@H](O)[C@@H](O)[C@@H](O[C@H]7[C@H](O)[C@@H](O)C(O)O[C@@H]7CO)O[C@@H]6CO)O[C@@H]5CO)O[C@@H]4CO)O[C@@H]3CO)O[C@@H]2CO)[C@H](O)[C@@H](O)[C@@H]1O; test: as above; assay type: biochemical; details: other: substrate of Bacillus sphaericus cyclodextrinase; pH 7.5; 40.0 °C

Row | Molecule | Relative hydrolysis rate (cyclodextrinase [1]) [%] | Vmax (cyclodextrinase [2]) | Relative value (cyclodextrinase [2]; Vmax/Km relative to β-cyclodextrin = 1.00) | Km (cyclodextrinase [3]) [µM] | Km (cyclodextrinase [4]) [µM] | Km [5] [µM] | Km [6] [µM] | Km [7] [µM] | Km [8] [µM] | Km [9] [µM] | Km [10] [µM] | Km [11] [µM]
1 | OC[C@H]1O[C@@H]2O[C@H]3[C@H](O)[C@@H](O)[C@@H](O[C@H]4[C@H](O)[C@@H](O)[C@@H](O[C@H]5[C@H](O)[C@@H](O)[C@@H](O[C@H]6[C@H](O)[C@@H](O)[C@@H](O[C@H]7[C@H](O)[C@@H](O)[C@@H](O[C@H]1[C@H](O)[C@H]2O)O[C@@H]7CO)O[C@@H]6CO)O[C@@H]5CO)O[C@@H]4CO)O[C@@H]3CO [α-cyclodextrin] | 44 | 0.074 | 0.36 | 2620 | 10000 |  |  |  |  |  |  | 
2 | cyclodextrinase (Lysinibacillus sphaericus) (protein, is cultured in a medium to yield and accumulate said cyclodextrinase, and this enzyme is collected from the culture; made in house; host or cells: Bacillus sphaericus E-244 (FERM BP-2458), the natural wild-type producer strain; not recombinant) MIMLEAVYHRMGQNWSYAYNDSTLHIRIRTKRDNVPRIDLHCGEKYDPEKYKETIPMERMASDGLFDYWQAAVQPRYRRLVYYFALHSDNGDAVYFMEKGFFDQPPKVMYEGLFDFPYLNRQDVHTPPAWVKEAIFYQIFPERFANGDPSNDPEGVQEWGGTPSAGNFFGGDLQGVIDHLDYLSDLGVNALYFNPLFAATTNHKYDTADYMKIDPQFGTNEKLKELVDACHARGMRVLLDAVFNHCGHTFPPFVDVLNNGLNSRYADWFHVREWPLRVVDGIPTYDTFAFEPIMPKLNTGNEEVKAYLLNVGRYWLEEMGLDGWRLDVANEVDHQFWREFRSEIKRINPSAYILGEIMHDSMPWLQGDQFDAVMNYPFTNILLNFFARRLTNAAEFAQAIGTQLAGYPQQVTEVSFNLLGSHDTTRLLTLCSGNVERMKLATLFQLTYQGTPCIYYGDEIGMDGEYDPLNRKCMEWDKSKQNTELLAFFRSMISLRKAHPALRGSGLRFLPVLEHPQLLVYERWDDNERFLIMLNNEDAPVNVVIPAAQPGASWRTVNGEPCAVVEESSIQAALPPYGYAILHAPIAGTAE |  |  |  |  |  | 380 | 1430 | 1540 | 1110 | 710 | 950 | 690

Source: patent publication US5238825A, “Preparation and use of a cyclodextrinase for preparing maltooligosaccharides” (Kikkoman Corporation, priority 1989, dated 1993)
